In the supplement of paper PMC10567573:

B1: PLAGL1 (parent)
chain: LELGSTEVLLDHLKAHAEEKPPSG

Variants of: B1
Assay: protein stability index of a GFP-peptide fusion (GPS, HEK-293T) (PSI 1-6); higher = more stable
Settings: c terminus: a fixed tail appended
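Note: lentivirally expressed fusions sorted by FACS into six bins by GFP to DsRed ratio, PSI derived from sequencing read proportions per bin multiplied by bin number.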

Row | Variant | protein stability index
1 | LELGSTEVLTDHLKAHAEEKPPSG | 5.87
2 | LELGSTEVLVDHLKAHAEEKPPSG | 5.1
3 | LELGSTEVLYDHLKAHAEEKPPSG | 5.26
4 | LELGSTEVLWDHLKAHAEEKPPSG | 4.81
5 | LELGSTEVLLDTLKAHAEEKPPSG | 4.62
6 | LELGSTEVLLDMLKAHAEEKPPSG | 3.06
7 | LELGSTEVLLDWLKAHAEEKPPSG | 3
8 | LELGSTEVLLDNLKAHAEEKPPSG | 5.15
9 | LELGSTEVLLDRLKAHAEEKPPSG | 4.37
10 | LELGSTEVLLDALKAHAEEKPPSG | 3.98
11 | LELGSTEVLLDDLKAHAEEKPPSG | 5.18
12 | LELGSTEVLLDVLKAHAEEKPPSG | 3.26
13 | LELGSTEVLLDPLKAHAEEKPPSG | 5.48
14 | LELGSTEVLLDSLKAHAEEKPPSG | 4.9
15 | LELGSTEVLLDLLKAHAEEKPPSG | 2.21
16 | LELGSTEVLLDILKAHAEEKPPSG | 3.02
17 | LELGSTEVLLDGLKAHAEEKPPSG | 5.16
18 | LELGSTEVLLDCLKAHAEEKPPSG | 4.32
19 | LELGSTEVLLDYLKAHAEEKPPSG | 2.44
20 | LELGSTEVLLDQLKAHAEEKPPSG | 4.82
21 | LELGSTEVLLDELKAHAEEKPPSG | 5.54
22 | LELGSTEVLLDKLKAHAEEKPPSG | 3.99
23 | LELGSTEVLLDFLKAHAEEKPPSG | 2.71
24 | LELGSTEVLLDHLQAHAEEKPPSG | 4.59

Row | Variant | protein stability index
25 | LELGSTEVLLDHLEAHAEEKPPSG | 5.5
26 | LELGSTEVLLDHLWAHAEEKPPSG | 4.1
27 | LELGSTEVLLDHLPAHAEEKPPSG | 5.32
28 | LELGSTEVLLDHLVAHAEEKPPSG | 4.63
29 | LELGSTEVLLDHLHAHAEEKPPSG | 5.15
30 | LELGSTEVLLDHLCAHAEEKPPSG | 4.69
31 | LELGSTEVLLDHLMAHAEEKPPSG | 3.6
32 | LELGSTEVLLDHLFAHAEEKPPSG | 3.5
33 | LELGSTEVLLDHLTAHAEEKPPSG | 5.1
34 | LELGSTEVLLDHLRAHAEEKPPSG | 3.5
35 | LELGSTEVLLDHLGAHAEEKPPSG | 5.39
36 | LELGSTEVLLDHLIAHAEEKPPSG | 4.55
37 | LELGSTEVLLDHLDAHAEEKPPSG | 5.56
38 | LELGSTEVLLDHLNAHAEEKPPSG | 5.04
39 | LELGSTEVLLDHLAAHAEEKPPSG | 4.93
40 | LELGSTEVLLDHLLAHAEEKPPSG | 4.61
41 | LELGSTEVLLDHLYAHAEEKPPSG | 4.14
42 | LELGSTEVLLDHLSAHAEEKPPSG | 5.04
43 | LELGSTEVLLDHLKRHAEEKPPSG | 3.89
44 | LELGSTEVLLDHLKLHAEEKPPSG | 4.83
45 | LELGSTEVLLDHLKQHAEEKPPSG | 4.63
46 | LELGSTEVLLDHLKHHAEEKPPSG | 4.37
47 | LELGSTEVLLDHLKGHAEEKPPSG | 4.29
48 | LELGSTEVLLDHLKDHAEEKPPSG | 4.8

Row | Variant | protein stability index
49 | LELGSTEVLLDHLKEHAEEKPPSG | 5.05
50 | LELGSTEVLLDHLKNHAEEKPPSG | 4.73
51 | LELGSTEVLLDHLKWHAEEKPPSG | 3.54
52 | LELGSTEVLLDHLKMHAEEKPPSG | 4.48
53 | LELGSTEVLLDHLKSHAEEKPPSG | 4.44
54 | LELGSTEVLLDHLKPHAEEKPPSG | 5.41
55 | LELGSTEVLLDHLKVHAEEKPPSG | 4.72
56 | LELGSTEVLLDHLKIHAEEKPPSG | 4.24
57 | LELGSTEVLLDHLKCHAEEKPPSG | 4.04
58 | LELGSTEVLLDHLKKHAEEKPPSG | 3.87
59 | LELGSTEVLLDHLKYHAEEKPPSG | 4.04
60 | LELGSTEVLLDHLKTHAEEKPPSG | 5.14
61 | LELGSTEVLLDHLKFHAEEKPPSG | 4.18
62 | LELGSTEVLLDHLKAHCEEKPPSG | 3.74
63 | LELGSTEVLLDHLKAHKEEKPPSG | 4.11
64 | LELGSTEVLLDHLKAHFEEKPPSG | 2.97
65 | LELGSTEVLLDHLKAHLEEKPPSG | 3.21
66 | LELGSTEVLLDHLKAHVEEKPPSG | 3.88
67 | LELGSTEVLLDHLKAHWEEKPPSG | 3.35
68 | LELGSTEVLLDHLKAHGEEKPPSG | 4.35
69 | LELGSTEVLLDHLKAHEEEKPPSG | 4.67
70 | LELGSTEVLLDHLKAHIEEKPPSG | 3.37
71 | LELGSTEVLLDHLKAHDEEKPPSG | 4.66
72 | LELGSTEVLLDHLKAHSEEKPPSG | 4.01

Row | Variant | protein stability index
73 | LELGSTEVLLDHLKAHQEEKPPSG | 4.65
74 | LELGSTEVLLDHLKAHMEEKPPSG | 2.74
75 | LELGSTEVLLDHLKAHPEEKPPSG | 4.66
76 | LELGSTEVLLDHLKAHREEKPPSG | 4.39
77 | LELGSTEVLLDHLKAHNEEKPPSG | 4.7
78 | LELGSTEVLLDHLKAHHEEKPPSG | 4.13
79 | LELGSTEVLLDHLKAHTEEKPPSG | 4.16
80 | LELGSTEVLLDHLKAHYEEKPPSG | 3.4
81 | LELGSTEVLLDHVKAHAEEKPPSG | 4.36
82 | LELGSTEVLLDHGKAHAEEKPPSG | 5.46
83 | LELGSTEVLLDHIKAHAEEKPPSG | 4.97
84 | LELGSTEVLLDHEKAHAEEKPPSG | 5.3
85 | LELGSTEVLLDHQKAHAEEKPPSG | 5.76
86 | LELGSTEVLLDHMKAHAEEKPPSG | 5.09
87 | LELGSTEVLLDHYKAHAEEKPPSG | 3.9
88 | LELGSTEVLLDHKKAHAEEKPPSG | 5.68
89 | LELGSTEVLLDHNKAHAEEKPPSG | 5.64
90 | LELGSTEVLLDHRKAHAEEKPPSG | 5.6
91 | LELGSTEVLLDHWKAHAEEKPPSG | 3.78
92 | LELGSTEVLLDHDKAHAEEKPPSG | 5.87
93 | LELGSTEVLLDHCKAHAEEKPPSG | 4.84
94 | LELGSTEVLLDHFKAHAEEKPPSG | 4.22
